{"source": "patent US20060229438A1", "about": "“Monoclonal antibody derived peptide inhibitors for mycobacterial dna gyrase” (priority 2002, published 2006)", "key": {"[1]": {"target": "T1, M. smegmatis DNA gyrase (Mycolicibacterium smegmatis, UniProt Q59556)", "T1 construct": "made in house", "T1 sequence (Q59556 whole entry)": "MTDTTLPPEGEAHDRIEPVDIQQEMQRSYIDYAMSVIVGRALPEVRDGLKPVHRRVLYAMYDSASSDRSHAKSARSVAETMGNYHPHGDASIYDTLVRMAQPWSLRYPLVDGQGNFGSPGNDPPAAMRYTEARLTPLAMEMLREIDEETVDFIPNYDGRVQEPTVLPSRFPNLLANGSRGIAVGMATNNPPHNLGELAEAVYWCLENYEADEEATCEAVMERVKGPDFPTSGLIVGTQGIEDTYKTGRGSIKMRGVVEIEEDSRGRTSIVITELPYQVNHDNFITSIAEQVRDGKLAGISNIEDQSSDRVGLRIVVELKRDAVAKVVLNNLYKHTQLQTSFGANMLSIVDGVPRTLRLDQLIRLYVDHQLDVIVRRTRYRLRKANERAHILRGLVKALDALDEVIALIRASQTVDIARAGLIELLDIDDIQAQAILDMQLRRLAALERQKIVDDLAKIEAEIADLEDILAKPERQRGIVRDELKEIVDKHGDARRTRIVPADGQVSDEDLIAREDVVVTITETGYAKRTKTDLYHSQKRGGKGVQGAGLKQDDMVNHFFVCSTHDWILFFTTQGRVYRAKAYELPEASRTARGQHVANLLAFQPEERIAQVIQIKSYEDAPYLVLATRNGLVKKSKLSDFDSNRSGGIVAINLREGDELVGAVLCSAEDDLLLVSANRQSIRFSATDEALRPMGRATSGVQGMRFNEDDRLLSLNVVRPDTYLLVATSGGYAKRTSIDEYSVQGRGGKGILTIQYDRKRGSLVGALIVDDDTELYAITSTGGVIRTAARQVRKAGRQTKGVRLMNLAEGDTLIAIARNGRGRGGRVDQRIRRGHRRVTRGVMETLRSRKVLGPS", "T1 sequence (P0C559 2-675, further chain)": "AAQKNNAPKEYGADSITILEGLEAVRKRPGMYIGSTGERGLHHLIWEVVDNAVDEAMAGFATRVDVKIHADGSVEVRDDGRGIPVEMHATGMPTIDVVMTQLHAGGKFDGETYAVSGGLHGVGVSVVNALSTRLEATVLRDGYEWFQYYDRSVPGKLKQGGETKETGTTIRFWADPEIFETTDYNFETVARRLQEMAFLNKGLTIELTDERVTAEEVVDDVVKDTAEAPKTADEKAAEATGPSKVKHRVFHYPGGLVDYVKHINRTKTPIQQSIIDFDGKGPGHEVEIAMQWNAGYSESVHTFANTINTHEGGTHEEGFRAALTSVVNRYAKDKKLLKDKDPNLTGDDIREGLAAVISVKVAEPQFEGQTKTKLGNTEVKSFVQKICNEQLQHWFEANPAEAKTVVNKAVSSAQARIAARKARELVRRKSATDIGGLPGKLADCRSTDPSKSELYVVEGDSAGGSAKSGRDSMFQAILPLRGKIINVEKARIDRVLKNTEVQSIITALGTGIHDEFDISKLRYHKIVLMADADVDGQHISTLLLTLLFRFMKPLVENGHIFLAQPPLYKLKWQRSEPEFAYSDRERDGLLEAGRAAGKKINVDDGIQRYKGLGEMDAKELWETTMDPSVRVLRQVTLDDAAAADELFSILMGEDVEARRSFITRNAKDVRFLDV", "test": "DNA supercoiling assay, M. smegmatis DNA gyrase", "format": "biochemical"}, "[2]": {"tested_on": "ciprofloxacin resistant M. smegmatis mc^2155 strain", "test": "Ciprofloxacin susceptibility (MIC50) of resistant strain", "format": "cell-based", "conditions": "Mycolicibacterium smegmatis"}, "[3]": {"tested_on": "DNA gyrase from ciprofloxacin resistant M. smegmatis mc^2155 strain", "format": "biochemical"}, "[4]": {"target": "T2, M. smegmatis DNA gyrase A subunit (GyrA) (Mycobacterium smegmatis, UniProt P48354 1-842)", "T2 construct": "also called M. smegmatis GyrA", "T2 sequence (P48354 whole entry)": "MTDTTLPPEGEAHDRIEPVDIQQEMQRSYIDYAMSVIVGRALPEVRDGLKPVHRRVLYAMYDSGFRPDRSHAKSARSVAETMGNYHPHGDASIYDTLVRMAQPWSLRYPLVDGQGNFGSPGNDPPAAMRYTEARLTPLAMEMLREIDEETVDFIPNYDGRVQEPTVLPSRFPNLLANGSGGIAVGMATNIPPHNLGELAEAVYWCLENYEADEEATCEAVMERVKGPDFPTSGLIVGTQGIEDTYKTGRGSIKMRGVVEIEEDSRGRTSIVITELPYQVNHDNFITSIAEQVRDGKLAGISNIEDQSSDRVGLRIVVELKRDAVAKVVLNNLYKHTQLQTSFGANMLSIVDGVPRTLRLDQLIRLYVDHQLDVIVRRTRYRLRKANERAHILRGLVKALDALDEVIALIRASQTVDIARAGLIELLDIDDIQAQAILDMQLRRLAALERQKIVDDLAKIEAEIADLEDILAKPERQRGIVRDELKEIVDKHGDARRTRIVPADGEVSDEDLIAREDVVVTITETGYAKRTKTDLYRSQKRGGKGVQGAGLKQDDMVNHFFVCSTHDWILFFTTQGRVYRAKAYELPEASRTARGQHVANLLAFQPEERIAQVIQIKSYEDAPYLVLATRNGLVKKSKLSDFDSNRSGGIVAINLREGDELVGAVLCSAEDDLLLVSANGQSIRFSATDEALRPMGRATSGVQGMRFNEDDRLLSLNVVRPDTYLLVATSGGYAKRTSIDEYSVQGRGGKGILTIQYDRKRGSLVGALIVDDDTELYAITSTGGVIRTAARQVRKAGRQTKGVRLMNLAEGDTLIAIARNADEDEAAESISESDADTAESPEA", "test": "SPR (BIAcore 2000), M. smegmatis GyrA immobilized on CM5 chip", "experimental": "Binding parameters were determined by Surface Plasmon Resonance (SPR) spectroscopy using a BIAcore 2000 system, Uppsala, Sweden. The over-expressed and purified M. smegmatis GyrA was immobilized on the CM5 sensor chip at a concentration of 400 resonance units (RU) as per manufacturer's instructions. All measurements were carried out in a continuous flow of HBS buffer (10 mM HEPES, 150 mM NaCl, 5 mM EDTA and 0.05 % Surfactant P-20, pH 7.4) at 10 μl/min. […] The kinetic data were analyzed using the BIA evaluation software (Version 3.0). The surface was regenerated by a pulse of 5 μL of 100 mM NaOH for further experimentation as required."}}}
{"molecule": "O=C(O)c1cn(C2CC2)c2cc(N3CCNCC3)c(F)cc2c1=O", "note": "[ciprofloxacin, reference compound]", "values": [{"measurement": "IC50", "setting": "[1]", "value": "~15.1", "unit": "µM"}, {"measurement": "MIC50", "setting": "[2]", "value": 64, "unit": "µg/mL"}]}
{"molecule": "KASGYSFTVYYIYWVK [CDR:H1]", "values": [{"measurement": "peptide concentration for complete inhibition of enzyme activity", "setting": "[1]; supercoiling activity", "value": "5 to 10", "unit": "µM"}, {"measurement": "concentration at which DNA supercoiling activity was inhibited", "setting": "[3]", "value": 10, "unit": "µM"}]}
{"molecule": "scFv:GyrA, engineered single chain antibody of MsGyrA:C3 (scFv, also called ScFV:GyraA; soluble scFv) scFv: AQVKLQQSGAELVRPGASVKLSCKASGYSFTVYYIYWVKQRPGQALEWIGEINPSNGGTNFNEKFKTKATLTVDKSTSTVYMQLSSLTSEDSAVYYCTRWGLRRGFAYWGQGTTVTVSSSGGGSGGGGSGGGGSDIELTQSPKSMSMSVGERVTLSCKASENVGTHVSWYQQRPEESPKLLIYGASNRYTGVPDRFTGSGSATDFTLTISNVQAEDLADYHCGQTYSYPFTFGLGTKLEIKRAAAGAPVPYPDPLEPRAA", "values": [{"measurement": "Kd", "setting": "[4]", "value": 0.000217, "unit": "µM"}]}
{"molecule": "scFv:GyrA: engineered single chain antibody fragment of MsGyrA:C3, monovalent 30 kDa polypeptide, Seq. ID #2, encoded by pVNUHMscFv (protein) scFv: AQVKLQQSGAELVRPGASVKLSCKASGYSFTVYYIYWVKQRPGQALEWIGEINPSNGGTNFNEKFKTKATLTVDKSTSTVYMQLSSLTSEDSAVYYCTRWGLRRGFAYWGQGTTVTVSSSGGGSGGGGSGGGGSDIELTQSPKSMSMSVGERVTLSCKASENVGTHVSWYQQRPEESPKLLIYGASNRYTGVPDRFTGSGSATDFTLTISNVQAEDLADYHCGQTYSYPFTFGLGTKLEIKRAAAGAPVPYPDPLEPRAA", "values": [{"measurement": "concentration at which the supercoiling reaction was inhibited", "setting": "[1]", "value": "10 to 20", "unit": "nM"}, {"measurement": "inhibition of DNA gyrase supercoiling activity", "setting": "[1]; enzyme preincubated with antibody, relaxed pUC18 DNA", "value": "inhibited"}, {"measurement": "concentration at which DNA supercoiling activity was inhibited", "setting": "[3]", "value": 0.05, "unit": "µM"}]}
